From doi:10.1101/2022.05.13.491857 (bioRxiv, 2022)
Read-outs that look alike come from different tables or passages of the source.

Legend:
Test in all cases: pull-down
[1] = molecular target: T1, WRC230WCA (human, UniProt Q7L576 1-1253; Q9Y2A7 1-1128; Q92558 1-230; Q92558 485-559; Q9NYB9 1-158; …)
[2] = molecular target: T2, ΔWRC230 (human, UniProt Q7L576 1-1253; Q9Y2A7 1-1128; Q92558 1-230; Q9NYB9 1-158; Q8WUW1 1-75)
[3] = molecular target: T1, WRC230WCA; remark: listed apart in the source
[4] = molecular target: T2, ΔWRC230; remark: listed apart in the source

B1: GST-Arf1 (natural protein)
chain: not shown
Kd [1]: ~8.2 µM | Kd [2]: ~0.66 µM | Kd [3]: ~107 µM | Kd [4]: ~22.6 µM
